Results from patent US20230416330A1, “Optimized GIP Peptide Analogues” (Antag Therapeutics ApS, priority 2019, published 2023).
Starred links: 1 amine or outer side, 2 acyl side, 3 side chain; linkers in the order of their positions; H or OH if unused. Non-standard residues stand in square brackets, D forms with d. Groups on a side chain read outwards from the residue. No end group written: not given here. *: point of attachment. C18 diacid = O=C(O)CCCCCCCCCCCCCCCCC(=O)*; C16 diacid = O=C(O)CCCCCCCCCCCCCCC(=O)*; γGlu = O=C(O)[C@H](CCC(=O)[*:2])N[*:1]; Glutaryl = O=C(CCCC(=O)[*:2])[*:1]; Nle = CCCC[C@H](N)C(=O)O; AEEA = NCCOCCOCC(=O)O; Aib = CC(C)(N)C(=O)O

B1: AT677 (peptide)
peptide: Glutaryl-GTFISDYSIAMDKIK(C16 diacid)QQDFVNWLLAQKPSSGAPPPS-OH
SMILES: CC[C@H](C)[C@H](NC(=O)[C@H](CO)NC(=O)[C@H](Cc1ccc(O)cc1)NC(=O)[C@H](CC(=O)O)NC(=O)[C@H](CO)NC(=O)[C@@H](NC(=O)[C@H](Cc1ccccc1)NC(=O)[C@@H](NC(=O)CNC(=O)CCCC(=O)O)[C@@H](C)O)[C@@H](C)CC)C(=O)N[C@@H](C)C(=O)N[C@@H](CCSC)C(=O)N[C@@H](CC(=O)O)C(=O)N[C@@H](CCCCN)C(=O)N[C@H](C(=O)N[C@@H](CCCCNC(=O)CCCCCCCCCCCCCCC(=O)O)C(=O)N[C@@H](CCC(N)=O)C(=O)N[C@@H](CCC(N)=O)C(=O)N[C@@H](CC(=O)O)C(=O)N[C@@H](Cc1ccccc1)C(=O)N[C@H](C(=O)N[C@@H](CC(N)=O)C(=O)N[C@@H](Cc1c[nH]c2ccccc12)C(=O)N[C@@H](CC(C)C)C(=O)N[C@@H](CC(C)C)C(=O)N[C@@H](C)C(=O)N[C@@H](CCC(N)=O)C(=O)N[C@@H](CCCCN)C(=O)N1CCC[C@H]1C(=O)N[C@@H](CO)C(=O)N[C@@H](CO)C(=O)NCC(=O)N[C@@H](C)C(=O)N1CCC[C@H]1C(=O)N1CCC[C@H]1C(=O)N1CCC[C@H]1C(=O)N[C@@H](CO)C(=O)O)C(C)C)[C@@H](C)CC
B2: AT682 (peptide)
peptide: EGTFISDYSIALDKIK([AEEA-AEEA-γGlu-C18 diacid])QQDFVEWLLAQKPSSGAPPPS-OH
modifications: N-terminus assumed
SMILES: CC[C@H](C)[C@H](NC(=O)[C@H](CO)NC(=O)[C@H](Cc1ccc(O)cc1)NC(=O)[C@H](CC(=O)O)NC(=O)[C@H](CO)NC(=O)[C@@H](NC(=O)[C@H](Cc1ccccc1)NC(=O)[C@@H](NC(=O)CNC(=O)[C@@H](N)CCC(=O)O)[C@@H](C)O)[C@@H](C)CC)C(=O)N[C@@H](C)C(=O)N[C@@H](CC(C)C)C(=O)N[C@@H](CC(=O)O)C(=O)N[C@@H](CCCCN)C(=O)N[C@H](C(=O)N[C@@H](CCCCNC(=O)COCCOCCNC(=O)COCCOCCNC(=O)CC[C@H](NC(=O)CCCCCCCCCCCCCCCCC(=O)O)C(=O)O)C(=O)N[C@@H](CCC(N)=O)C(=O)N[C@@H](CCC(N)=O)C(=O)N[C@@H](CC(=O)O)C(=O)N[C@@H](Cc1ccccc1)C(=O)N[C@H](C(=O)N[C@@H](CCC(=O)O)C(=O)N[C@@H](Cc1c[nH]c2ccccc12)C(=O)N[C@@H](CC(C)C)C(=O)N[C@@H](CC(C)C)C(=O)N[C@@H](C)C(=O)N[C@@H](CCC(N)=O)C(=O)N[C@@H](CCCCN)C(=O)N1CCC[C@H]1C(=O)N[C@@H](CO)C(=O)N[C@@H](CO)C(=O)NCC(=O)N[C@@H](C)C(=O)N1CCC[C@H]1C(=O)N1CCC[C@H]1C(=O)N1CCC[C@H]1C(=O)N[C@@H](CO)C(=O)O)C(C)C)[C@@H](C)CC
B3: AT693 (peptide)
peptide: EGTFISEYSIALEKIK([AEEA-AEEA-γGlu-C18 diacid])QQEFVEWLLAQKPSSGAPPPS-OH
modifications: N-terminus assumed
SMILES: CC[C@H](C)[C@H](NC(=O)[C@H](CO)NC(=O)[C@H](Cc1ccc(O)cc1)NC(=O)[C@H](CCC(=O)O)NC(=O)[C@H](CO)NC(=O)[C@@H](NC(=O)[C@H](Cc1ccccc1)NC(=O)[C@@H](NC(=O)CNC(=O)[C@@H](N)CCC(=O)O)[C@@H](C)O)[C@@H](C)CC)C(=O)N[C@@H](C)C(=O)N[C@@H](CC(C)C)C(=O)N[C@@H](CCC(=O)O)C(=O)N[C@@H](CCCCN)C(=O)N[C@H](C(=O)N[C@@H](CCCCNC(=O)COCCOCCNC(=O)COCCOCCNC(=O)CC[C@H](NC(=O)CCCCCCCCCCCCCCCCC(=O)O)C(=O)O)C(=O)N[C@@H](CCC(N)=O)C(=O)N[C@@H](CCC(N)=O)C(=O)N[C@@H](CCC(=O)O)C(=O)N[C@@H](Cc1ccccc1)C(=O)N[C@H](C(=O)N[C@@H](CCC(=O)O)C(=O)N[C@@H](Cc1c[nH]c2ccccc12)C(=O)N[C@@H](CC(C)C)C(=O)N[C@@H](CC(C)C)C(=O)N[C@@H](C)C(=O)N[C@@H](CCC(N)=O)C(=O)N[C@@H](CCCCN)C(=O)N1CCC[C@H]1C(=O)N[C@@H](CO)C(=O)N[C@@H](CO)C(=O)NCC(=O)N[C@@H](C)C(=O)N1CCC[C@H]1C(=O)N1CCC[C@H]1C(=O)N1CCC[C@H]1C(=O)N[C@@H](CO)C(=O)O)C(C)C)[C@@H](C)CC
B4: AT694 (peptide)
peptide: EGTFISEYSIA[Nle]EKIK([AEEA-AEEA-γGlu-C18 diacid])QQEFVEWLLAQKPSSGAPPPS-OH
modifications: N-terminus assumed
SMILES: CCCC[C@H](NC(=O)[C@H](C)NC(=O)[C@@H](NC(=O)[C@H](CO)NC(=O)[C@H](Cc1ccc(O)cc1)NC(=O)[C@H](CCC(=O)O)NC(=O)[C@H](CO)NC(=O)[C@@H](NC(=O)[C@H](Cc1ccccc1)NC(=O)[C@@H](NC(=O)CNC(=O)[C@@H](N)CCC(=O)O)[C@@H](C)O)[C@@H](C)CC)[C@@H](C)CC)C(=O)N[C@@H](CCC(=O)O)C(=O)N[C@@H](CCCCN)C(=O)N[C@H](C(=O)N[C@@H](CCCCNC(=O)COCCOCCNC(=O)COCCOCCNC(=O)CC[C@H](NC(=O)CCCCCCCCCCCCCCCCC(=O)O)C(=O)O)C(=O)N[C@@H](CCC(N)=O)C(=O)N[C@@H](CCC(N)=O)C(=O)N[C@@H](CCC(=O)O)C(=O)N[C@@H](Cc1ccccc1)C(=O)N[C@H](C(=O)N[C@@H](CCC(=O)O)C(=O)N[C@@H](Cc1c[nH]c2ccccc12)C(=O)N[C@@H](CC(C)C)C(=O)N[C@@H](CC(C)C)C(=O)N[C@@H](C)C(=O)N[C@@H](CCC(N)=O)C(=O)N[C@@H](CCCCN)C(=O)N1CCC[C@H]1C(=O)N[C@@H](CO)C(=O)N[C@@H](CO)C(=O)NCC(=O)N[C@@H](C)C(=O)N1CCC[C@H]1C(=O)N1CCC[C@H]1C(=O)N1CCC[C@H]1C(=O)N[C@@H](CO)C(=O)O)C(C)C)[C@@H](C)CC
B5: AT695 (peptide)
peptide: EGTFISEYSI[Aib]LEKIK([AEEA-AEEA-γGlu-C18 diacid])QQEFVEWLLAQKPSSGAPPPS-OH
modifications: N-terminus assumed
SMILES: CC[C@H](C)[C@H](NC(=O)[C@H](CCCCN)NC(=O)[C@H](CCC(=O)O)NC(=O)[C@H](CC(C)C)NC(=O)C(C)(C)NC(=O)[C@@H](NC(=O)[C@H](CO)NC(=O)[C@H](Cc1ccc(O)cc1)NC(=O)[C@H](CCC(=O)O)NC(=O)[C@H](CO)NC(=O)[C@@H](NC(=O)[C@H](Cc1ccccc1)NC(=O)[C@@H](NC(=O)CNC(=O)[C@@H](N)CCC(=O)O)[C@@H](C)O)[C@@H](C)CC)[C@@H](C)CC)C(=O)N[C@@H](CCCCNC(=O)COCCOCCNC(=O)COCCOCCNC(=O)CC[C@H](NC(=O)CCCCCCCCCCCCCCCCC(=O)O)C(=O)O)C(=O)N[C@@H](CCC(N)=O)C(=O)N[C@@H](CCC(N)=O)C(=O)N[C@@H](CCC(=O)O)C(=O)N[C@@H](Cc1ccccc1)C(=O)N[C@H](C(=O)N[C@@H](CCC(=O)O)C(=O)N[C@@H](Cc1c[nH]c2ccccc12)C(=O)N[C@@H](CC(C)C)C(=O)N[C@@H](CC(C)C)C(=O)N[C@@H](C)C(=O)N[C@@H](CCC(N)=O)C(=O)N[C@@H](CCCCN)C(=O)N1CCC[C@H]1C(=O)N[C@@H](CO)C(=O)N[C@@H](CO)C(=O)NCC(=O)N[C@@H](C)C(=O)N1CCC[C@H]1C(=O)N1CCC[C@H]1C(=O)N1CCC[C@H]1C(=O)N[C@@H](CO)C(=O)O)C(C)C

Target: T1, human GIP receptor (human, UniProt P48546 22-466)
T1 sequence (looked up): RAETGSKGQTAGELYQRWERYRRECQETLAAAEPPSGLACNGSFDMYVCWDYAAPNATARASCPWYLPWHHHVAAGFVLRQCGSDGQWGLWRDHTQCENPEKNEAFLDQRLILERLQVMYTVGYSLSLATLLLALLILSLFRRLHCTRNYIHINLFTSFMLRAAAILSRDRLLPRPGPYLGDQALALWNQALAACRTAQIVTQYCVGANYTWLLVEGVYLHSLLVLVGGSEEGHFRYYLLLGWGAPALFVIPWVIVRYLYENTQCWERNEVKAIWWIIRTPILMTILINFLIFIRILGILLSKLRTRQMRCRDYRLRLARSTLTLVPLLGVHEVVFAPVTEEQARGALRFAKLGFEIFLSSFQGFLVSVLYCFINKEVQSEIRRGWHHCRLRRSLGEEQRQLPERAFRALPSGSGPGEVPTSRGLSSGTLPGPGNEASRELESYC
Experiment: cell-based or functional assay

| Binder | cAMP antagonism % inhib (CisBio assay) [%] | cAMP antagonism nM (IC50, CisBio assay) [nM] | cAMP antagonism pIC50 (CisBio assay) |
| --- | --- | --- | --- |
| B1 | 93 | 0.447 | 9.4 |
| B2 | 89 | 13.6 | 7.9 |
| EGTFISDYSIA[Nle]DKIK([AEEA-AEEA-γGlu-C18 diacid])QQDFVEWLLAQKPSSGAPPPS-OH [AT683] | 93 | 15.9 | 7.8 |
| EGTFISDYSI[Aib]LDKIK([AEEA-AEEA-γGlu-C18 diacid])QQDFVEWLLAQKPSSGAPPPS-OH [AT685] | 83 | 2 | 8.7 |
| EGTFISDYSI[Aib][Nle]DKIK([AEEA-AEEA-γGlu-C18 diacid])QQDFVEWLLAQKPSSGAPPPS-OH [AT686] | 82 | 3.42 | 8.5 |
| B3 | 96 | 1.26 | 8.9 |
| B4 | 88 | 1.47 | 8.8 |
| B5 | 98 | 0.794 | 9.1 |
